Data: paper PMC10372164 (Molecular Therapy. Nucleic Acids, 2023)

Target: the molecule itself
Experiment: SEC

B1: human ornithine transcarbamylase labeled with 3x FLAG at the C-terminus (enzyme, UniProt P00480 33-354, looked up)
chain: NKVQLKGRDLLTLKNFTGEEIKYMLWLSADLKFRIKQKGEYLPLLQGKSLGMIFEKRSTRTRLSTETGFALLGGHPCFLTTQDIHLGVNESLTDTARVLSSMADAVLARVYKQSDLDTLAKEASIPIINGLSDLYHPIQILADYLTLQEHYSSLKGLTLSWIGDGNNILHSIMMSAAKFGMHLQAATPKGYEPDASVTKLAEQYAKENGTKLLLTNDPLEAAHGGNVLITDTWISMGQEEEKKKRLQAFQGYQVTMKTAKVAASDWTFLHCLPRKPEEVDDEVFYSPRSLVFPEAENRKWTIMAVMVSLLTDYSPQLQKPKF
stoichiometry N: 3
